{
  "source": "patent US7351689",
  "about": "(ZymoGenetics, dated 2008)",
  "binders": {"B1": {"name": "IL-29 (SEQ ID NO: 4) (ligand)", "chain": "GPVPTSKPTTTGKGCHIGRFKSLSPQELASFKKARDALEESLKLKNWSCSSPVFPGNWDLRLLQVRERPVALEAELALTLKVLEAAAGPALEDVLDQPLHTLHHILSQLQACIQPQPTAGPRPRGRLHHWLHRLQEAPKKESAGCLEASVTFNLFRLLTRDLKYVADGNLCLRTSTHPEST"}, "B2": {"name": "C1-C3 form (C16-C113) of wild-type E. coli-derived IL-29 (ligand)", "chain": "MGPVPTSKPTTTGKGCHIGRFKSLSPQELASFKKARDALEESLKLKNWSCSSPVFPGNWDLRLLQVRERPVALEAELALTLKVLEAAAGPALEDVLDQPLHTLHHILSQLQACIQPQPTAGPRPRGRLHHWLHRLQEAPKKESAGCLEASVTFNLFRLLTRDLKYVADGNLCLRTSTHPEST"}, "B3": {"name": "zcyto20 (IL-28A), human (ligand)", "chain": "VPVARLHGALPDARGCHIAQFKSLSPQELQAFKRAKDALEESLLLKDCRCHSRLFPRTWDLRQLQVRERPMALEAELALTLKVLEATADTDPALVDVLDQPLHTLHHILSQFRACIQPQPTAGPRTRGRLHHWLYRLQEAPKKESPGCLEASVTFNLFRLLTRDLNCVASGDLCV"}},
  "key": {"[1]": {"target": "T1, human IL-28 receptor on transfected 293 HEK cells (IL-28 receptor alpha subunit with endogenous CRF2-4) (human)", "T1 sequence (Q8IU57 whole entry, chain 1 of 2)": "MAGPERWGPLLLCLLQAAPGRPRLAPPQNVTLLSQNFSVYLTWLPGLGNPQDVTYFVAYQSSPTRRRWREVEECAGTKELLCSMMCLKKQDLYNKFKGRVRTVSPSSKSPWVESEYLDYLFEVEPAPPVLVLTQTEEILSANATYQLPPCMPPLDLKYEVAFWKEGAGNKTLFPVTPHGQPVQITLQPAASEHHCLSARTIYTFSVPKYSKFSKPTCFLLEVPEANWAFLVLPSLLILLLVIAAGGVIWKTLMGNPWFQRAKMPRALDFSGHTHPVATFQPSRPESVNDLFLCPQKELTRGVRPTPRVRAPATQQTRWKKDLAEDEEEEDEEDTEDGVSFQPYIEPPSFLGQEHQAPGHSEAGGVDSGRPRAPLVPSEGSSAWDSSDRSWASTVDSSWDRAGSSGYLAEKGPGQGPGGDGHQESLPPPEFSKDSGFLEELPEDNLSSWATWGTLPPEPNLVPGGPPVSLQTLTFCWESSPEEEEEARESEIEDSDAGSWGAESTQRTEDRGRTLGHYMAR", "T1 sequence (Q08334 whole entry, chain 2 of 2, further chain)": "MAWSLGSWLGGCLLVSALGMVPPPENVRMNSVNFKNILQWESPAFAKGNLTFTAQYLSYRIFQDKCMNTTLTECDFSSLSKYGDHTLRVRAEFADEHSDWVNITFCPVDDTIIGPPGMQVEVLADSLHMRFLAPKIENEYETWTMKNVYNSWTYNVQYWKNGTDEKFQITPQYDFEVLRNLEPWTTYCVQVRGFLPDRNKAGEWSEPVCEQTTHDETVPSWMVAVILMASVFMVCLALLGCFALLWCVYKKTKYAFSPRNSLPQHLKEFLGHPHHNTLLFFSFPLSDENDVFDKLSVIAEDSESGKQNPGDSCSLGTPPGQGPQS", "test": "cell-based or functional assay"}, "[2]": {"target": "T1, human IL-28 receptor on transfected 293 …", "test": "cell-based or functional assay", "remark": "listed apart in the source"}},
  "data": [
    {"binder": "B1", "values": [
      {"measurement": "ISRE Signaling of Transfected 293 Cells Following Class II Cytokine Stimulation (Fold Induction), ISRE-Luc./IL-28R, IL-29 125 ng/ml", "setting": "[1]", "result": 108, "unit": "fold induction"}
    ]},
    {"binder": "B2", "values": [
      {"measurement": "bioactivity in an ISRE assay", "setting": "[2]", "result": "30 fold higher than the C112-C171 form"}
    ]},
    {"binder": "B3", "values": [
      {"measurement": "ISRE Signaling of Transfected 293 Cells Following Class II Cytokine Stimulation (Fold Induction), ISRE-Luc./IL-28R, IL-28A 125 ng/ml", "setting": "[1]", "result": 125, "unit": "fold induction"}
    ]}
  ]
}
